US20250304712A1 (NATIONAL UNIVERSITY OF SINGAPORE, published 2025)

T1: Lymphocyte antigen 6 family member K (LY6K) expressed on the cell surface of human cells (human, UniProt Q17RY6 18-138)
T1 construct: whole, on cells; overexpressed in HEK293T for ADCC; also called LY6K on Ca Ski, Calu-1 and other human cancer cell lines; HEK293T-Ly6K overexpressing cells
T1 sequence (looked up): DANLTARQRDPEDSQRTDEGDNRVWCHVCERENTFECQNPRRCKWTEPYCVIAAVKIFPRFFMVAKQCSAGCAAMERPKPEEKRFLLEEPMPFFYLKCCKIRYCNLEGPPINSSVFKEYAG

B1: murine anti-LY6K antibody G57 (antibody, V domains shown)
VH: EVQLVESGGDLVKPGGSLKLSCAASGFTFNSYGMSWVRQTPDKRLEWVATISSGGTYTYYSDSVKGRFTISRDNAKNILYLHMSSLKSEDTAMYYCARHDWDFFDYWGQGTTLTVSS
VL: DVVMTQTPLSLPVSLGDQASISCRSSQSLVHTDGDTYLNWYLQKPGQSPKLLIYKVSNRFSGVPDRFSGSGSGTDFTLKIRRVEAEDLGVYFCSQNTHVYTFGGGTKLE
notes: Hybridoma-derived; also called Ms G57
B2: humanized 22C-G8 (antibody, V domains shown)
VH: QVQLVQSGAEVKKPGASVKVSCKASGYTFTSYWMHWVRQAPGQGLEWIGEINPSNGGANYNEKFKRRATMTVDKSTSTVYMELSSLRSEDTAVYYCTMGGNFFFAYWGQGTLVTVSS
VL: DVVMTQSPLSLSVTLGQPASISCKSSQSLLASDGKTYLNWFQQRPGQSPRRLIYLVSKLDSGVPDRFSGSGSGTDFTLKISRVEAEDVGVYYCWQGSHFPLTFGGGTKVE
notes: CDR-grafted into human frameworks; also called Hu22C-G8; Hu 22C-G8

Legend:
[1] = target: T1, Lymphocyte antigen 6 family member K …; assay: flow cytometry on human cancer cell lines
[2] = target: T1, Lymphocyte antigen 6 family member K …; assay: flow cytometry on Calu-1 cells

Binder	binding result [1]	binding result [2]
B1	binds	
B2		binds
